# Results reported in the DeepSol protein solubility set.
# Experiment: soluble on expression in E. coli; label from the status in PepcDB or PDB records
row,Sequence,soluble on expression in E. coli
1,MGKYQPSFQTKKGWTEVICGPMFSGKTEKLLHKIKRWKIAKISVVIFKPIIDTRQTNIVKSRNGEYDQAITINSPFEIYDHLVDKNYQIVAIDEAQFFSNEIIEVVTTLNEIGTNVIISGLDTDFRAEPFGCIPQLLAIADVVNKLDAICNVCGSLAQRTQRLVNKNTNDNLVLIGDAEAYEARCKLHHSFLTKKHVTVKTKNFKEQVQGKTQLEHHHHHH,not soluble
2,MGSSHHHHHHSSGLVPRGSHMASGTSKDASGGSSSGKEVLEFYHGYHHSEDEWPVAKTMRDLYDKFAEEHKDSGVEFKPTPVNGDLKDIMNNKVASGEFPDVIDLAGNAVSLAAIEQKLVLDLKPYIDSNKLEKNVGLNYKQNQKDGKIYTVHEQLFTMGLWYNKDIFAKAGAKTPDQWNTWDDFTQAMASIRKQDGVYAFGAGEPSIRLFNTVLGTTENGRKLLDKPLTKEGIESKEFADALKMVMKEIQANGSKNAGGDANAYSKDFQEGKSAVFFNGVWASGEMSKNPSLAPGIYPAGVAISSSGGGITISSKMSEAKQKLALEFLKYMTSDDVQKVIFEKVGANPSNENVNVKELSEKSSEATTKILGQAITQVKNAKAVVPTVSDVWGGDVHTAIINALTESAAENVDVDQKVKSTQDVLKSLIG,soluble
3,AGLENTDHTNNEHRLTQLLSIAEECETLDRLKQLVDSGRIFTAYNGFEPSGRIHIAQALITVMNTNNMIECGGQMIIYIADWFAKMNLKMNGDINKIRELGRYFIEVFKACGINLDGTRFIWASEFIASNPSYIERMLDIAEFSTISRVKRCCQIMGRNESDCLKASQIFYPCMQAADVFELVPEGIDICQLGIDQRKVNMLAIEYANDRGLKIPISLSHHMLMSLSGPKKKMSKSDPQGAIFMDDTEQEVSEKISRAYCTDETFDNPIFEYIKYLLLRWFGTLNLCGKIYTDIESIQEDFSSMNKRELKTDVANYINTIIDLVREHFKKPELSELLSNVKSYQQPSK,soluble
4,MDAKETSATDLKRPREEDDNGGAATMETENGDQKKEPACFSTVIPGWFSEMSPMWPGEAHSLKVEKVLFQGKSDYQDVIVFQSATYGKVLVLDGVIQLTERDECAYQEMITHLPLCSIPNPKKVLVIGGGDGGVLREVARHASIEQIDMCEIDKMVVDVSKQFFPDVAIGYEDPRVNLVIGDGVAFLKNAAEGSYDAVIVDSSDPIGPAKELFEKPFFQSVARALRPGGVVCTQAESLWLHMDIIEDIVSNCREIFKGSVNYAWTSVPTYPSGVIGFMLCSTEGPDVDFKHPLNPIDESSSKSNGPLKFYNAEIHSAAFCLPSFAKKVIESKAN,soluble
5,GSHMAARRGALIVLEGVDGAGKSTQSRKLVEALCAAGHRAELLRFPERSTEIGKLLSSYLQKKSDVEDHSVHLLFSANRWEQVPLIKEKLSQGVTLVVDRYAFSGVAFTGAKENFSLDWCKQPDVGLPKPDLVLFLQLQLADAAKRGRARGELERYENGAFQERALRCFHQLMKDTTLNWKMVDASKSIEAVHEDIRVLSEDAIATATEKPLGELWK,soluble
6,MQTLILMAYIKRLVSEGKHASLREAYYANKHTVPGTRENTFEDQSESDPIIEDLERMLGVLREEMHITADRRGYIYGDIVIKDGEDEFNASKLGTGGWAVPGTVEHIQFPEINVDYVLVVETAAMADRLIEEKYPKRENCLIVATQGQASRGVRRLIHRLHYEEGLPIIVFTDGDPYGWYIYSTIKRGSINLAYLSEKLATPDAKFVGMTMDDIKEYNLENVTEKLKGIPPDKKGGPTGDYKRLIEELNYPWFQDKEWQRQLKLALKWGVRIEQQALANKSLEFVAKEYLPEKIREGKLLP,soluble
7,MARFLLIIGCATLAALASCESKSGEETPQYWRAILGDICQLPSFPRATGDPTRYVECVRQSSFAADRKDLGIWLLRECLPGYEFVASARRCKTVRSVNKQQELCESANATEYNFCPTASAMQFLVEETREAPRQCACPNGEQNCVCPSPEILEPISAVKKVRRSAQQQPLRFSQYPSCPCPQNQPACTCSTNNQQNEQILVSISCCQQQETTTQAPVQMQPCQCTPTQIQQNCQTTTTQQQYCPQQSAPVVQPQPCPLVQGSGVQNAQYQGICSWMIDPLATDPQSRTHYLQCQPAPNNLFCGRWQRMPCAPGTVFDVQSQVCVWDTNSQPGTLPTPAPYVSTQAPQNAQCGCTGGVQIGSCNQNYQCPGQSVCQVGQNAGQQCMVCCYFRKKARRF,not soluble
8,MGSDKIHHHHHHMKKYHYSQAPLPFVGQKRMFASEFRKVLKRFSDRTVFVDLFGGSGLLSHITKRERPDATVIYNDHDNYRERLENISRTNALLSDLRRLSEGIPRHRMLSKKMHGMFLERIRREESTGFVDYLTISSSLLFSGKYARNIGELGKLNFYNNMRLSDYCCEGYLDGLEVVYCDYRELVDRYRDSPDVVFLIDPPYMATDISTYRMDWKLTDYLDVLLVLEGHPFIYFTSGKSPILDFCRWMEEHPETGNPFKGAGISTLTARMNYSSSYTDIMLYKEMTEAA,not soluble
9,SQELRGEIKLFCSVTASYSHLPELLSSFRLKHPYIEFKLLTGDPAQAIDKILHDEADIAISAMPEQLPSRIEFATISEIPLSVIAPLGISSFMDELQKEQPDWNEIPFIVPESGTARDRANTWFKQMKIKPNIYAQIAGHEAIV,not soluble
10,MSLEEKPKYKRILLKLSGEAFAGEQGYGIDPAFLEYISHEIKNVYDLGVQVAIVIGGGNIFRGFQGKEIGVDRATADYMGMLATVINALALQSALENHVNIPTRVLSAIEMRQVAEPYIRRRAIRHLEKGRIVIFAGGTGNPFFSTDTAAALRAAEIGAEVLIKATKVGGIYDKDPEKYPDAVLIKEISYLEVINMGLKVMDHTALTLCKENEIPIIVLNVKEKGNLRRAVLGEEVGSVVRGEGHHHHHH,soluble
11,MNEQRLSMRLERVATHVPAGARLADIGSDHGYLPVALLNRGAVSAAVAGEVALTPFYAAERTVRENDLDQQISVRLADGLAAIEPTDRITAISLCGMGGETIRDILESGKARLSGQERLILQPNGGEQPLRVWLMEHNYRILDEEVLRENRFDYEIIVAERTGPMIYTAEQLYFGPIQMQTRSPAFLLKWQRLLGKKHKALSNFARARKAVPEEKMQDLAQQIRWITALLN,not soluble
12,MRFLSLLCPPVERAAVMRPPYTTHLQRVPLMRKSLLALSLLAATSAPVLAADYSDGDIHKNDYKWMQFNLMGAFDELPGKSSHDYLEMEFGGRSGIFDLYGYVDVFNLATNKSSDKVGDPKIFMKFAPRMSLDAFTGVDMSFGPVQEVYVASLFEWDGTDFKTNAFSVNNQKIGLGSDVMVPWFGKVGLNLYGTYDGNRKDWNGFQISTNWFKPFYFFENGSFISYQGYIDYQFGLKDEYSTASNGGAMFNGIYWHSDRFAVGYGLKGYKDVYGIKDTDGFKSTGFGHYVAVTYKF,not soluble
13,MGSDKIHHHHHHMSTPIGLGLPPTPPPVLAPRRKTRQLMVGKVGVGSDHPISVQSMTTTKTHDINGTLQQIAQLTATGCDIVRVACPKTVDAEALPIIAKKSPIPVIADIHFQPKYIFAAIDAGCAAVRVNPGNIKEFDGRVKEVAKAAGDAGIPIRIGVNGGSLDKRILDKYHGKATPEALVESAMWEAGLFEEHGFGDIAISVKHSDPVLMVEAYRQLAEQSDYPLHLGVTEAGPKFMGTIKSSVAFGALLSQGIGDTIRVSLSADPVEEIKVGDQILQSLNLRPRKLEIVSCPSCGRAQVDVYSLAEEVTEALDGMEVPLRVAVMGCVVNGPGEARDADLGVASGNGKGQIFVKGEVIKTVPESQIVETLIEEAMRIAEEMDPEVLAAASASGMKAEVKVTK,not soluble
14,MEATGLITEYNPFHNGHLYHLKKAQELTKADVTIVLMSGNWVQRGLPAITDKWKRAQAAIDAGADLVFELPFYYAVQAGEIFAQGAVRLLSDLQVSSIICGSEHADIDFINLAAHEPDISGNSNFDKKNRTFASNYAAALEEKTGFYLENANDILAFSYAKAILNQNLTEKIKLRTISRVSADYHDQFLNDGEIASATAIRKALSEGQNVDSYTPMSDLQY,not soluble
15,MPLHQVVEPAFYIVVVLDLVSGRLNGHDKDTLGLAQQLANRNSGGGAVVAIAFGELKDDSLNKAGVDRLIHINDEQYDQYNPEQRCNDLQGIIGELDPQHILLPDSINGGGDLGRRLAAALQQRPACGVWKLNDDTVVCR,not soluble
16,MGSDKIHHHHHHDANGVKIGVITDMSGSYADLSGKGSVLAAQMAVEEFGGKALGKPVTVLSADHQNKADIASSLARRWFDTDGVDMVIDFPNSSTALAVQEVAKQKQKIDIVSTGGAMALTNQNCSPTGFHWAWDTYSVSYPLVKRMIDQGRNSWYYITVDYAFGQSLEADFRKAVDVSGGKNVGSTKHPLNASDFSSPVVAASASKANVVVLANAGNDMINGVKAAGEFGLVKAGQTVITPSTFITDIKSLGLNTAQGLTYVDPFRLDLDEKSKDFVERYYKRHKAYPTHGQIGVYSGVLHYLKAVEAAKTVDGPAVADKMRALPVNDAFVHNGKVRADGRMVHDMYLAQAKTPAESKGPWDLVKYIATIPGDEAFRPLSASECALVKK,not soluble
17,MGHHHHHHSHMPKNQEDSEEKGEKDEQTAKFLHKLAENGKDRGLPDCVVAQYEKNAWEATNSDEKYKSCEKCGMPPPPPIDGAKNSVVEEVCKNCETINEKPIGIESQILEKRRNEEILKRKEERKSLKRSAEESVTNSAPEKIQKKVHVKIMPRKCAPQILRRSLVPPPILTPKSAKKKLKLAENKEPDFLKALLNVTGNPV,not soluble
18,MSLAEKPKKPQKLRARLPRGLADRGPAEIAATRAMVEKIREVYERYGFEPVETPAFEYTDALGKFLPDQDRPNEGVFSLQDDDEQWISLRYDLTAPLARYVAENFDQLPKPHRSYRFGWVFRNEKPGPGRFRQFMQFDADTVGAPTAAADAEMCMMAADTMEALGIPRGSYVVKVNNRKVLDGVLESIGLGGDENAGRRLTVLRAIDKSDKFAPEEIKKLLGPGRWDGGEEGKGDFTKGAMLSDDQSELILRATSPSFIAGRFNADGSGGISNIDTVELLRSTADNETLKQGCDELAVIADLLDACGYGATSANPDVRVVIDPSVVRGLEYYTGPVYEVELLLDTKDEKGRPVRFGSVGGGGRYDGLVSRFRGEPVPATGFSIGVSRLQAALTLIGQLGNKPQAGPVVVTVFGGEIAGYQKMVATLRKAGIRAELYLGNPKHSLGQQMKYADKRNSPCAIIQGSDEKQQGIVQIKDLILGAELASLEKDRDEYLKKQAEAQFSCNEDEMVAKVQELLQRRGWRGGKGIITITTDPNSSSVDKLAAALEHHHHHH,soluble
19,MGHHHHHHSHMTLVLSMNRFCEPIVSEGAAEIAGYQTLWEADSYGGPSPPGPAQAPLQGDRGAGPPLAGSHYRGISNPITTSKITYFKRKYVEEEDFHPPLSSCSHKEQSRGQLVEDMTIKRHQLRNKYKTRIQGFLCDAARFLYPSNKCICDRLKNDD,not soluble
20,MDLFTRKDGTSIHYSTLGEGYPIVLIHTVLDNYSVFNKLAAELAKSFQVVLIDLRGHGYSDKPRHIEIKDFSDDIVELLKYLYIEEVAFVCHEMGGIIGADISVRYPEFTSSLTLVNPTSIEGELPEERLFRKYAHIIRNWDPEKQDKFLNKRKYYRPRKMNRFLKHVVDTNEISTKEEIQAVKEVFKNADISQTYRNVVVPTKIIAGEFGERTTRLEAKEVADLIQNADFEVYQESSAFPFVEEQERFVEDTAAFINKHHDEKHV,not soluble
21,MGSDKIHHHHHHMTLPATITHQEKLLTVDTTAHPFLKALGGHEGTDIFPLFMDPYNGLMVMRASFAPGLTLPLHFHTGTVHMYTISGCWYYTEYPGQKQTAGCYLYEPGGSIHQFNTPRDNEGQTEVIFMLSGCNVNFTQDGTYLGLSDAGVIKNWVDRAIREQDNGLRYIAAAVPTYAA,not soluble
